T1: EIL1-GST (tomato, UniProt Q94FV4 1-610)
T1 sequence: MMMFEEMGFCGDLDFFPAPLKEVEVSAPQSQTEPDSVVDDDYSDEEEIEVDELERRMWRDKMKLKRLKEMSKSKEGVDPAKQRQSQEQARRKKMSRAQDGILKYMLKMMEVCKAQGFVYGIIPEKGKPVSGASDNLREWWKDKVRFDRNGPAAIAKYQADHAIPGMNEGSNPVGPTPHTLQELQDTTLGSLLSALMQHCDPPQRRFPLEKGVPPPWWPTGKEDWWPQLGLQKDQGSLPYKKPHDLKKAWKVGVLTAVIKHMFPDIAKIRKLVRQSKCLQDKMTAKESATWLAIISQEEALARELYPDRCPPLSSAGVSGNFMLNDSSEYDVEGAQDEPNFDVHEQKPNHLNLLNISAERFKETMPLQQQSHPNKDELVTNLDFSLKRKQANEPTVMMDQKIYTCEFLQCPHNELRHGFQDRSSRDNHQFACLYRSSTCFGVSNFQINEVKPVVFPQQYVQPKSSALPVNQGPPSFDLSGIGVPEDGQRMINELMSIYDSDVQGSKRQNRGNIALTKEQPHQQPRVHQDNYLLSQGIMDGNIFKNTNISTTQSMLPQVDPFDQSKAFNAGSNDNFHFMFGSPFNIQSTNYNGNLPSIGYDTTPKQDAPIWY


Assays:
[1] = biological target: MYC2-TF (tomato, UniProt A0A3Q7HRZ6 1-689); test: EMSA
[2] = biological target: T1, EIL1-GST; test: EMSA

Chain of MYC2-TF (A0A3Q7HRZ6 whole entry): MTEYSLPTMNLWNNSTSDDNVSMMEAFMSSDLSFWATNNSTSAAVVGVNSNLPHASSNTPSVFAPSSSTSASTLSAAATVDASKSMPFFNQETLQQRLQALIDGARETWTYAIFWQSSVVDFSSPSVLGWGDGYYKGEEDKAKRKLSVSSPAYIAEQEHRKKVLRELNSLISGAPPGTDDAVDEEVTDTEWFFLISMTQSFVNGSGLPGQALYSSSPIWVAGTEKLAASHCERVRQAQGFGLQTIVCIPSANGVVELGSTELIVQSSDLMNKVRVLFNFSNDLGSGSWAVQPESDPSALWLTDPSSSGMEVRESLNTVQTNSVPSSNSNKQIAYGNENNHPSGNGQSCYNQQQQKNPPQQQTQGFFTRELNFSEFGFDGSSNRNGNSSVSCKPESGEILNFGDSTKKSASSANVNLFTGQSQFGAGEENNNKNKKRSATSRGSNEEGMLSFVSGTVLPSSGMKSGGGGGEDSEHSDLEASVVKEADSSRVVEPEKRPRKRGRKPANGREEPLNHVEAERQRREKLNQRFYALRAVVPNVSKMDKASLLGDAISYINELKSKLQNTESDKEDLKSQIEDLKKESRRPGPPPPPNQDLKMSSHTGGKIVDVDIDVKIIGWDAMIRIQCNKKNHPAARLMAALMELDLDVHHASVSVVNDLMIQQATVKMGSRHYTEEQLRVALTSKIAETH

Row | Binder | binding result [1] | binding result [2]
1 | CYP94B promoter G-box probe (dsDNA) DNA 1: TTTACGCGCACAAGAAACACGTGATTTAAATGCATAATTA DNA 2: TAATTATGCATTTAAATCACGTGTTTCTTGTGCGCGTAAA | binds | –
2 | CYP94C1 promoter EBS probe (dsDNA) DNA 1: TGTGTCTTTTTTCAATAAAGGTGATGTATCGGGACAAGATGCATCGGACGCTG DNA 2: CAGCGTCCGATGCATCTTGTCCCGATACATCACCTTTATTGAAAAAAGACACA | – | binds
